According to US20140271682, “HUMAN HOMEOBOX GENE VENTX AND MACROPHAGE TERMINAL DIFFERENTIATION AND ACTIVATION, COMPOSITIONS AND METHODS THEREOF” (published 2014):

Target: T1, VentX (Homo sapiens, UniProt O95231 SEQ:1-258)
T1 sequence: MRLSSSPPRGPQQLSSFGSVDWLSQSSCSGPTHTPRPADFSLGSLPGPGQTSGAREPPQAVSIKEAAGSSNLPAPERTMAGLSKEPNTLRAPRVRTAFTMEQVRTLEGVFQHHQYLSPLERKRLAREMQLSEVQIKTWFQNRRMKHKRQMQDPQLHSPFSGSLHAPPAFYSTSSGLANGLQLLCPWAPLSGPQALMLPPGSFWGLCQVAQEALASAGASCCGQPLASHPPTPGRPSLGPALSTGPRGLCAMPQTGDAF
Assay: EMSA; fluorescence-based EMSA kit
Conditions: tags: pCS2-VentX, TNT reticulocyte lysate
Method: Lysate Systems, Promega). […] Gel shift assay was performed with a fluorescence-based Electrophoretic Mobility Shift Assay (EMSA) Kit from Invitrogen following the manufacturer's instruction. The following double-stranded oligonucleotides were used in the experiments: 5′-[…]-3′ (wild type M-CSFR probe, putative homeodomain binding sequence is in bold and underlined); 5′-[…]-3′ (mutant M-CSFR);

B1: M-CSFR promoter probe wild type (dsDNA)
DNA 1: CTGCGTCTCTAAAATAATAATAATAAATTTTTAAAAGATATGC
DNA 2: GCATATCTTTTAAAAATTTATTATTATTATTTTAGAGACGCAG
binding result: binds
